According to the domain aggregation screens of Martell et al. (2025):

Test: soluble fraction after stress (log2 fold change); higher = more stays soluble; pooled small domains, quantitative proteomics
Details: stress: 50 degC
Summary of the method: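 The stress applied to every library was 50°C. These custom libraries of small protein domains were pooled and measured at high throughput with quantitative proteomics as the read-out. Aggregation propensity is expressed as the base-two logarithm of the fold change in how much of each protein remains soluble. The higher the value, the more of that protein stays in solution.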

| Sequence | soluble fraction (log2) |
| --- | --- |
| HMTLGPKQMGEAIIKNLKEKTGKSLEEWSQRILIHELTDKKEIIDFLKNDNGLGHFQALKIFEHLNGK | -0.02 |
| HMQQSVSSLVRRYMLQTIPGINFSLKSTALALNMSDRTLQRKLLSENTSYQIILDDVRKELAIKYLKE | -3.19 |
| HMRDLVTYVVQVNGKLRGKLEVSPSTDDNSLKTMALELENVQRALEGLSVKKVIVIPGKMVSIAAG | 0.167 |
| HMGKPTPASQVATRWLAGDLPETLPVAGPAPSFETLARSVSTDFHPRAVLQELLRLGVAEEADGRVRLLK | 0.00959 |
| HMFPQVEVQLIYSYKSDRILNKMLKEFNVVILNQVFKDDILTSFHMNYSLVNQLITKIKSYPDISYKIIN | -1.5 |
| HMYIVVPDLSKKDINEVANILAAQSLRFQVIDSANFRSDFPKNAVISQKPLAGSEVKVNKKIYLQLNPS | -0.345 |
| HMELLSGTVEKVLTSGVLVKLPGGAIGFIPNSEMGTPRGTNHGKMFPAGTPLQVMVVEVNQDRGRITLSR | -1.45 |
| HMLEAMDSDEAAKVIEQIVNERADFVRSKGMGAIGPLMGPVMGALRGKVDGKQANELLTAAIKKLL | 0.273 |
| HMVSGSPTVDILMQRGLEYQQQENLEAARDAFDRAINLKPDYAEAWNRRAVLFFNEGKYDEAIADLETAIT | 0.077 |
| HMDNQSIVRINDGDGAWRQRLGEHFGHLPRDRKRGEIVLQVDAADWRWLQTQGYAPRFDAALSAQLQTTL | -0.404 |
| HMLPDLLNGRVIPSPEKVIRARLNRGVWELLVQWVGRAPSDATWENLLEFKSAYPSVQLEDALF | -1.45 |
| HMNDVGKVLNQLGERDRMILLLTYWDELPLKEAARILEVSENNAKIILFRARSRFASLWSAGS | -3.13 |
| HMIDHKVIRSFRQKRNMTLQELAQKANLSVSYLSEIELGKKQPSLETLDKLSKALNISLEGL | -0.116 |
| HMKEVELENMIKAKGFKDAAVLVDERSVTVIVESERLAAGDSASIKELVSRGTGVDPQNVVII | -0.107 |
| HMPRSREVHVEPGMVLEDVTTGFVGAVIRTEKSAGIYVIELEDRRGRRRSFPLGGGFWLDGRPIIALPPLP | -1.19 |
| HMETKPTELMLEVHELRIGMFVHLDLGWMDHPFPLNRFKISTNSQIEQIKGLRLKQVKVMTALSDPTALS | -2.21 |
| HMTGELEVTAAGLSPEKLLNLAAKNHITLSNVKRLSYTQLSFRIGPADYNRLKKLLPEGRYKLNVGSS | -0.289 |
| HMRRSVYQANVLDAIKHLVDQNELATTKAIAEYIGDDYQGNVSRAIRELLADRKIKKLPKVGVLQPYEA | -0.285 |
| HMDKKIVGVNAGKVWQALNEVTEISIVELAEKLNLSVESTALAAGWLAREDQISIERKNGTIELQRKN | -0.263 |
| HMEGTEVTTEPPGAQIEFDGKQFGPTPTRVPGLAAGKQFRITLAGYQEAKPKLKNNPKEGEPLSFTLTAI | 0.406 |
| HMGSVNDNVQKLTSQIGETTETGDTITPEDVELYKKMVDPLSTMAQKLEAAEILKLKGIIGSNGIIV | -0.0442 |
| HMDPEQLKIAINTKMPFGKYSGRPLLLLPEPYLVWFKQQGFPDSKLGSQLAMMYEVKLNGLEQMLMPLL | -0.673 |
| HMDLYIILGLERSATLSDVRRAYRRLARKYHPGINPGDRNSASVFTRVSEAYQVLSDPEQRRRYDSR | -2.81 |
| HMHRTRNAERTRAAVLKAAAEVLAERGTGASLARIAEVAGVSKSGLLHHFANREQLIVALLED | -0.984 |
| HMSTMKSKWFVSSNPIAGVMKYQAQRKKDVNAVDSSENREASGQWYTDKEEAQAIVDKLNAEEQIKEAGK | 0.159 |

| Sequence | soluble fraction (log2) |
| --- | --- |
| HMNQRTATVTASQLNVRSGPSTAYSIVHVLRQGETVEVIGESDGWYQIRLKDGRVGWSSGQYLNLN | 0.0784 |
| HMDFSNVNFSQVSDSELDLLMRRASAQGYTQFDLLKIARAQGLTQAEIEKLDKRFKSAETVAYVAENA | 0.0939 |
| HMNILNFSENIIKLRHKKGITQEELADFVGVTKASVSKWETKQSLPDIMLLPRLAAYFDVTVDELLGYEP | 0.0236 |
| HMSSRSLSYSDFIERVDAGQVSKVVMDGERLVVVGQDGTSYVTIKPPGDQVTENLSRELISKGVEVEAEPQ | 0.0107 |
| HMTAVAAEQQAQDAYRQTAANNLNEIQAKYKLPDSESDDFFTFAYERGFTQEDFIDIGLVDKIMGDYV | 0.0927 |
| HMDKPGMRLNQFIAHSGISSRREADNLIKAGLVQVNGKIIVEMGFRVMPTDIVKFNNETIAS | -1.46 |
| HMIVDYPSFVGKTKQELEKWAKENNIIIRYRQLSVTASDKVKAQLPATTTYKRIMKGSSIEVELEL | -0.776 |
| HMDWPDDETIARIYALIKSDISSQARKVMELRFSEGMPFARIAAAMGISETAVYRHLSHALTVIRQKLN | -2.06 |
| HMGPKPVDMSPIPEGQRNQVLHDWMYGRAANHPENWGQIRSDALERGLKSGLKADEIHAITGSVARALGLE | 0.12 |
| HMVIMDLIVNGEPKYVVGEQLHLILDELGYSGKHFVVELNGEILSKEAYTTTKLTAADRLEIVSFVGG | -3.5 |
| HMSRAMFEMHADWQPTDSIRGLLGRAGLPTDIAKLDQSRIGDFVNHWFGKPDRNTADSWNGLLVGWLKRTQ | -1.18 |
| HMEVIDQLFKIALTLFDIDKGENNSISQDLVDKVIEQMKTTAPTFIKRELSEDEVKKLRFEIQNHFNV | -0.221 |
| HMPVTAQFDFSKVLAGRTLKDGEFSFVLKDKNGTVLQTKTNDASGKVAFDALIYKNNEVGEHKYTVEEVI | 0.208 |
| HMSTSERLKQVMEVKGFNLKTFSEQADIPYRTLQNYILTNREPSAESLAKLHSQLGINLNWLMSGKGEMF | -0.283 |
| HMQLPIGDVKLSVEHLSSGTALQDISFEVHRGEIFGFLGLVGAGRSETAETIFGLREKTDGKISIDGTVL | -0.214 |
| HMKKIDVEVVRSQLIAWMADNGKSQAEVSKSMGISASALSMFIKGTYTGDNEQIGRKAAALMDLVHRQSA | 0.0121 |
| HMTSKIIIGDSYSKINKLLGEPENMKKRKFLDNEYLMVLYSINKKNYRLYFKDNILFELEDI | -0.941 |
| HMSEDTYNTLTKGTRVYNGVDYGAKYGYNPLYYFLNYNDLRIAYGADPAKLVEHYALFGIKENRVANRQIT | -0.098 |
| HMQVSITGYLGGEKIGLFDDAKFKALAAKQGIAIDYRKAGSPAMMDADRKGMDYLFPSSRAAVEYGNAKGV | -0.009 |
| HMESLGEKIKNIRISNNLKQSELADILHISEKTISSWENNRTTPDLNMIYKISNYFKKSFYYLISDDYI | -1.02 |
| HMNKKEIISVLEKIIPPSQIKNINIFGSELVIDLNIDNPSLHAKKKLEKSIMSSFDENLKIIVNFSVE | -0.00924 |
| HMEWEVHSVTVTPELSGERLDVAATALLSQFSRALVQRWIDANELTLNERPVKAKSKVRVGDLIAVKAK | -0.874 |
| HMIAITVGSKVRVKAGATFSDGTKPFTEVYNTVYDVQLLSRNGKEARIGIGEQWTGWMYISDLYPADQ | -0.359 |
| HMTDTIALRSVIAESGLKYKALAEIMGLSPYTLQMKIDNESEFKASEIDALANALGMDMQQRDSIFF | -0.701 |
| HMKRTRLEEAMDWLREQLNDGPVAYATLKDEAPKAEITLSTLRAAGEALRVDKQKKGVQWGGWTWSLPR | 0.0438 |

| Sequence | soluble fraction (log2) |
| --- | --- |
| HMLKHSKQRDAIEQFLATRYDHPTAETVYMNLREEYPKLSLATVYRNLSLLAELGNIQKIPTGNGPDRFDG | -0.555 |
| HMQTSETVYTTDKVNVRAGADTSSDKLGSVEKGTSLTRTGTDGDWSIIDYNGTTGYIKSEYLSATAPE | 0.133 |
| HMKYGPSTVAVLTVVRESEMGAFLDAETGRTNDDILLHKTQQTEPVHIGDQVKVFLYLDPKHRLTASMRVP | -1.16 |
| HMLQLDATDRALIVATQGGLPLVPRPYQVVGEQLGISGEEVVARLRALLDAGVIRRIGAVPN | -0.283 |
| HMEVAVQFIEFKIPENHAWIGKEIREITFPPESILVLIIRDGKKLVPNGKTVLKEGDSLILSGKASD | -0.538 |
| HMLVTQSITVPMAMSGIRLDAALAMLFPDHSRNRLKAWLDDGHILVDGAVWAGKQRLEGNEEITATLPEAK | -0.207 |
| HMDVLSQYGSRGEEVGKIQTRLKSWGYFSGEVTGYYGSQTTEAVKRFQQKHGLSATGVADRKTLELIGIS | -0.108 |
| HMSIHPRDKADLGTALSKWKKGALDDKQLELEVARVFMRTYGKKLEGQALNKAVAAWVAALTQSKK | 0.506 |
| HMDINLGIGPLVKKYRTIKGYSIRELARNINVTASMLSQIERDIVNPSINTLKAISVELGVPMYKFFM | -2.33 |
| HMDLLVWRVADEDAGERIDKLVVDSLDDVSRTAVQQWIKDGLVTVNGKTVKPNYKAAAGDEVAVSVPEPE | 0.149 |
| HMSASIAEGTVIMLENTTNIRSGMSEDSSKVGTAYAGEKVTVVMSYAEGWTKVKWNGETGYIKTALLQL | -0.212 |
| HMSFGWELYKGKEGIADTDLHPSGWIRIADKRVFAVSEGEFIEKGLEIIVLSVDGNRIVVRELK | -1.39 |
| HMLTPQEIGSRLKLVRQGLQLKQQEVAEIIGTSQLKISKIEQGATVTTPDFLKLLAFYSQSVSLDILF | -0.564 |
| HMNVVSIEHIRTHLQNHLSLIGRSIEESFNEAKVIAFVASLFLTHRGYASVSQDMGTNGEIYLQDLW | -0.381 |
| HMVDPWLEQVHRASAAYATAHGSARIPTTHPDLGWKVVRVRQRHRKGLLSDEWVAKFEALPGWTWEPK | -0.282 |
| HMQESTPGEGYKWREDVLLRVMSQNGIDESLRDEFVRHAVNYDIDDNMYLKKAEIESAAEAWVLENS | -0.0581 |
| HMHPVTGRIGTVTAANGLNLRADSSEYANVVATLGYGVDVTVTGERINGFYPVRVGTLSGYVSADYVSFNS | -0.238 |
| HMRLADHVVEKLLALVQERGLQPGQKLPAERQLAEVLGVSRTSVREAIQKLVSQGVLSARRGDGTYVQS | 0.00808 |
| HMRAGALTTLTERERNVFDLVVTGHSNPEIARQLSIADVTVKTHVGHILSKLGVRDRVHLVIWAHRQGLAD | -2.61 |
| HMIRQETYLLVRKAVGALPVQMRKIIELAMQGKKNAEIAAQLSISEGTVHTLKKTAYKKLRDRLQE | -2.22 |
| HMSAMSPTEVGERLRLAREAVRMTQKQAADAISVARTTLVAIEQGQRRVRIDELQQLAKTYGVSVNAILR | -0.757 |
| HMINKDNLIEEILKFINTKIADISSNNPLFDIVAKPYISKVVTNNVSKLDKALSLIADDKGMVDADGLLT | -0.292 |
| HMNQSAVMAERMKQTKNRILQTAKEIFLEQGYKRTTIRQIVERSGITSGSIYNIFSSKEEIFSALVDDL | -2.65 |
| HMGVGERIKARRKEIGLSAEQVAKELGVSPATVYRYESNDIMNMRIDKLEPIAKALHTTPAYLMGWE | -0.0318 |
| HMFYNDLINFDVFRDSRKIGKIENINSRLPQPVFEIMYDSRIVLIPIHEDFIRKIDKVNNIIYLDIPDGLL | -1.72 |
